Laboratory results: US20220402980A1 (OSPEDALE SAN RAFFAELE S R L, published 2022)
Where two headings read alike, the source gives them in different places. *1 amine or outer side, *2 acyl side, *3 side chain or, on linkers, in order; H or OH if unused. Bridges are numbered along the chain shown (N, C = ends). Where no end group is shown, it is not given here. [ ]: non-standard residue; d: D form. The star is where a group is joined. maleimide‑NOTA = 1,4,7-triazacyclononane-1,4-bis-acetic acid-7-maleimidoethylacetamide; Biotin = O=C1N[C@H]2[C@H](CS[C@H]2CCCCC(=O)*)N1; Lys(N3) = [N-]=[N+]=NCCCC[C@H](N)C(=O)O; βAsp = O=C(O)[C@H](CC(=O)[*:2])N[*:1]; hSer(lactone) = O=C1OCC[C@@H]1N*; Pra = C#CC[C@H](N)C(=O)O

How the values were obtained:
bovine serum albumin = biological target: T1, bovine serum albumin (bovine, UniProt P02769 25-607); experiment: 2D-STD-1H-15N-HSQC NMR, negative control
T1 construct: Negative control in the STD NMR experiments; also called BSA

[1] = biological target: T2, recombinant human αvβ6 extracellular domain (R&D Systems) (human, UniProt P06756 31-992; P18564 22-709); experiment: STD NMR, 0.5 mM peptide with 4 µM αvβ6
T2 construct: extracellular domain; Bought; also called recombinant extracellular αvβ6; purified αvβ6

[2] = biological target: T2, recombinant human αvβ6 extracellular …; experiment: competitive αvβ6 binding assay, isoDGR-HRP probe
[3] = biological target: T2, recombinant human αvβ6 extracellular …; experiment: competitive binding assay on αvβ6-coated plates, isoDGR/STV-HRP probe
[4] = biological target: T3, wild-type human integrin αvβ5 (octyl β-D-glucopyranoside preparation) (human, UniProt P06756 31-1048; P18084 24-799); experiment: competitive binding assay on αvβ5-coated plates, isoDGR/STV-HRP probe
T3 construct: From Immunological Sciences

[5] = biological target: T4, wild-type human integrin αvβ3 (octyl β-D-glucopyranoside preparation) (human, UniProt P06756 31-1048; P05106 27-788); experiment: competitive binding assay on αvβ3-coated plates, isoDGR/STV-HRP probe
T4 construct: From Immunological Sciences

[6] = biological target: T5, wild-type human integrin α5β1 (octyl β-D-glucopyranoside preparation) (human, UniProt P08648 42-1049; P05556 21-798); experiment: competitive binding assay on α5β1-coated plates, isoDGR/STV-HRP probe
T5 construct: From Immunological Sciences; also called a5p1; asp1

[7] = biological target: T2, recombinant human αvβ6 extracellular …; experiment: competitive binding assay on αvβ6-coated plates, isoDGR/STV-HRP probe; remark: listed apart in the source
[8] = biological target: T6, αvβ8 integrin (purified, coated on microtiter plates) (UniProt P06756 31-992; P26012 43-684); experiment: competitive binding assay on αvβ8-coated plates, isoDGR/STV-HRP probe
T6 construct: The Reagents section names no source for αvβ8; also called avs8

[9] = biological target: T3, wild-type human integrin αvβ5 (octyl …); experiment: direct binding to integrin-coated microtiter plates, one site specific binding fit
[10] = biological target: T2, recombinant human αvβ6 extracellular …; experiment: as above
[11] = biological target: T5, wild-type human integrin α5β1 (octyl …); experiment: as above
[12] = biological target: T4, wild-type human integrin αvβ3 (octyl …); experiment: as above
[13] = biological target: T6, αvβ8 integrin (purified, coated on …); experiment: as above
[14] = biological target: T2, recombinant human αvβ6 extracellular …; experiment: direct binding to integrin-coated plates, near-infrared fluorescence
[15] = biological target: T6, αvβ8 integrin (purified, coated on …); experiment: as above

T5 sequence (P08648 42-1049, chain 1 of 2): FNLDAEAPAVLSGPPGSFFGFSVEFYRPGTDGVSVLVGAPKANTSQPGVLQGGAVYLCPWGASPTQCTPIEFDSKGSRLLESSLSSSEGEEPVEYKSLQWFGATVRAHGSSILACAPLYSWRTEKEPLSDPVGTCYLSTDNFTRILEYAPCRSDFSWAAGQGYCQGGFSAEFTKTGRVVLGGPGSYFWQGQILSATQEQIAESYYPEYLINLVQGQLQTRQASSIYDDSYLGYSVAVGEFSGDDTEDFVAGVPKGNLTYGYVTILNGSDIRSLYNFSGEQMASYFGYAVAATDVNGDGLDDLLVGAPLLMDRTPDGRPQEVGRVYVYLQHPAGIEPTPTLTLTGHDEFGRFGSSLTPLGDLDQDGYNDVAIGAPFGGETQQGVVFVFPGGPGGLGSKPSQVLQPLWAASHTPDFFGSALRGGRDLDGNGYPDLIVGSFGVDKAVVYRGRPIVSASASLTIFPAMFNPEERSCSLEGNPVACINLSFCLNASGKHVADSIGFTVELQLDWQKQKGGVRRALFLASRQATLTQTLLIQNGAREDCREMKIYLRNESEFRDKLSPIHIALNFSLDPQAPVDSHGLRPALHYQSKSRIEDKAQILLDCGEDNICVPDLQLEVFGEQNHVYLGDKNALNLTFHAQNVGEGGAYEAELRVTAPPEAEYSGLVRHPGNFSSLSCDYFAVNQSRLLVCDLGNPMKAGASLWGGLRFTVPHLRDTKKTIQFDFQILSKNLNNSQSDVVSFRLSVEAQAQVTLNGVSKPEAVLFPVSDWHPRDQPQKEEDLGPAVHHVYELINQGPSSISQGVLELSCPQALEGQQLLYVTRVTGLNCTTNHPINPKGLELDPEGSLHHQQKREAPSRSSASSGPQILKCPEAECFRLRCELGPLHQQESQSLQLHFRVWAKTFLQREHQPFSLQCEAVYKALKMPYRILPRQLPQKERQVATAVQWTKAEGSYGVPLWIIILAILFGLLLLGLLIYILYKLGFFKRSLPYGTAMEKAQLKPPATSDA
T5 sequence (P05556 21-798, chain 2 of 2): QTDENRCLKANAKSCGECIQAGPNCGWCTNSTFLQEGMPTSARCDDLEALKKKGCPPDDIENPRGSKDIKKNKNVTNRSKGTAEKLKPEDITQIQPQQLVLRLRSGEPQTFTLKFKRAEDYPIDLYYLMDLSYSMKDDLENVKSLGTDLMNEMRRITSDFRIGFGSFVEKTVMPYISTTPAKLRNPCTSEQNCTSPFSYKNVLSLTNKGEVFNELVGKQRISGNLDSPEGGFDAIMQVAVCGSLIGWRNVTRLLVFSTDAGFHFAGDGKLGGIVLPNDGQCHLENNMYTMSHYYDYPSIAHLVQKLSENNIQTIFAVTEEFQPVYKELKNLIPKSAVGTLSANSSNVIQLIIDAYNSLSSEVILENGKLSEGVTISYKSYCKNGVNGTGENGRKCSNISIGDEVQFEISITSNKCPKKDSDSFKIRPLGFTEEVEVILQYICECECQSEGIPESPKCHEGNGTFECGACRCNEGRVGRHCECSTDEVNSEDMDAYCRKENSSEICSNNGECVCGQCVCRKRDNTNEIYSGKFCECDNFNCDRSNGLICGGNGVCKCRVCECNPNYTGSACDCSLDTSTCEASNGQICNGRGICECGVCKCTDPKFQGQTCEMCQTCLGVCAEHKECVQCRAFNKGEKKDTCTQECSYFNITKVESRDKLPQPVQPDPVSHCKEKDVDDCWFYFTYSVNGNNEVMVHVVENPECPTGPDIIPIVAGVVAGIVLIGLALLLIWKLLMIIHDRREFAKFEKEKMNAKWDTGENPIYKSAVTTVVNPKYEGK
T2 sequence (P06756 31-992, chain 1 of 2): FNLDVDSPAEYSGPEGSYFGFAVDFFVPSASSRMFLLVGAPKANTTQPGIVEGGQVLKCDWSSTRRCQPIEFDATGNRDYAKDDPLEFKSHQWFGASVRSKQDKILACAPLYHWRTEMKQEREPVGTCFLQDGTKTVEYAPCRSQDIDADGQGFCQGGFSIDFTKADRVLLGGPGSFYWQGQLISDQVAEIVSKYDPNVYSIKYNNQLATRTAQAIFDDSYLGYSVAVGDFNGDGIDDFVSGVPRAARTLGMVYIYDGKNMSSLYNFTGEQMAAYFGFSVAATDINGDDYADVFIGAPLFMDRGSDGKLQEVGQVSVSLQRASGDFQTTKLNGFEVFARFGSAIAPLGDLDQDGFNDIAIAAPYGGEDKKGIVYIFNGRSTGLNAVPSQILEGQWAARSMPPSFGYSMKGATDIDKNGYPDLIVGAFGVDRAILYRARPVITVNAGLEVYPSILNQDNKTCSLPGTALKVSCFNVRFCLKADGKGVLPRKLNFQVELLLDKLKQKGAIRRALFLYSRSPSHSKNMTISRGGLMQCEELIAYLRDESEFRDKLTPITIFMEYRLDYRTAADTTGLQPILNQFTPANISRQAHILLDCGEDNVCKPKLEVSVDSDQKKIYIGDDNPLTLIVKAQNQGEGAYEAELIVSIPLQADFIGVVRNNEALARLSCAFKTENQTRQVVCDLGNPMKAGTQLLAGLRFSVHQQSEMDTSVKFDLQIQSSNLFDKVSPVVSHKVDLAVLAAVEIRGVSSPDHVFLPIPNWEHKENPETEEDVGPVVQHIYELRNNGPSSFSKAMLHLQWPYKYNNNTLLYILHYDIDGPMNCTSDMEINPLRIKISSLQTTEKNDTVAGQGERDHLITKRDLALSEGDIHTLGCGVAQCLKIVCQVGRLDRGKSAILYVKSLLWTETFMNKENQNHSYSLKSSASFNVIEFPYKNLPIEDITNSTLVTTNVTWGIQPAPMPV
T2 sequence (P18564 22-709, chain 2 of 2): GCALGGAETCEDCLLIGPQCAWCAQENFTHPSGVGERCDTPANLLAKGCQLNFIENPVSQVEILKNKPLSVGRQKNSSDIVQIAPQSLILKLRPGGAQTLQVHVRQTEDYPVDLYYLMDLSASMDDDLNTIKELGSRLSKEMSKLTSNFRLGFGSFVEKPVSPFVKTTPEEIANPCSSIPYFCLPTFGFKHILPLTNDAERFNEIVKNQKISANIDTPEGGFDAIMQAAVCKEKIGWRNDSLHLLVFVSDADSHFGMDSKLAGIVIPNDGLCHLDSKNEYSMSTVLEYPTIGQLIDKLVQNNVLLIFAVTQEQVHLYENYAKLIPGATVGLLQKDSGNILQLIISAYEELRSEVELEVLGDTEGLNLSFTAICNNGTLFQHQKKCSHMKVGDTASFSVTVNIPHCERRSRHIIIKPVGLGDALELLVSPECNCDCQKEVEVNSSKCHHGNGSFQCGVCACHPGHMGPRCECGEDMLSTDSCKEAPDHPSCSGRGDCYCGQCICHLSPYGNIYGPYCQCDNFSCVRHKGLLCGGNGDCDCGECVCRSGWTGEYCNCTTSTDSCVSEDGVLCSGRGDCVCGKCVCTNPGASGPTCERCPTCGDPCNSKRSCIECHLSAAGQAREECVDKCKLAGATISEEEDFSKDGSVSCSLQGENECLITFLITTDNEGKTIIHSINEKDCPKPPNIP
T6 sequence (P06756 31-992, chain 1 of 2): as the sequence (P06756 31-992, chain 1 of 2) above
T6 sequence (P26012 43-684, chain 2 of 2): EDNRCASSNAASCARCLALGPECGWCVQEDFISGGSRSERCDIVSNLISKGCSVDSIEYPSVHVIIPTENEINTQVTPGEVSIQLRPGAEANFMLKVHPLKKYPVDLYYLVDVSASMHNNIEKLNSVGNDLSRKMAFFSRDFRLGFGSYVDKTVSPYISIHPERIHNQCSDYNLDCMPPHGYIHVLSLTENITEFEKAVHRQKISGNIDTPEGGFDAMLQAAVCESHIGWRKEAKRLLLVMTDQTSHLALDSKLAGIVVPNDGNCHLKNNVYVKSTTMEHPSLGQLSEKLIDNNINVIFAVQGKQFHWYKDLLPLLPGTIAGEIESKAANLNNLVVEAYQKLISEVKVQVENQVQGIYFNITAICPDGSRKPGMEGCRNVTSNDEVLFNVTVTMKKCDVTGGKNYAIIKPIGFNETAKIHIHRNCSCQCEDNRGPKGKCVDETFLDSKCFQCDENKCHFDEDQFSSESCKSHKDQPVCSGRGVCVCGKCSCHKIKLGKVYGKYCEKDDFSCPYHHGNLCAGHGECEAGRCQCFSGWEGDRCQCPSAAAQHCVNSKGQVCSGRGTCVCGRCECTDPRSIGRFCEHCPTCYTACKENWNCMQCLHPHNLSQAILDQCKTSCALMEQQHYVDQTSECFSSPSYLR
T1 sequence (P02769 25-607 limits assumed): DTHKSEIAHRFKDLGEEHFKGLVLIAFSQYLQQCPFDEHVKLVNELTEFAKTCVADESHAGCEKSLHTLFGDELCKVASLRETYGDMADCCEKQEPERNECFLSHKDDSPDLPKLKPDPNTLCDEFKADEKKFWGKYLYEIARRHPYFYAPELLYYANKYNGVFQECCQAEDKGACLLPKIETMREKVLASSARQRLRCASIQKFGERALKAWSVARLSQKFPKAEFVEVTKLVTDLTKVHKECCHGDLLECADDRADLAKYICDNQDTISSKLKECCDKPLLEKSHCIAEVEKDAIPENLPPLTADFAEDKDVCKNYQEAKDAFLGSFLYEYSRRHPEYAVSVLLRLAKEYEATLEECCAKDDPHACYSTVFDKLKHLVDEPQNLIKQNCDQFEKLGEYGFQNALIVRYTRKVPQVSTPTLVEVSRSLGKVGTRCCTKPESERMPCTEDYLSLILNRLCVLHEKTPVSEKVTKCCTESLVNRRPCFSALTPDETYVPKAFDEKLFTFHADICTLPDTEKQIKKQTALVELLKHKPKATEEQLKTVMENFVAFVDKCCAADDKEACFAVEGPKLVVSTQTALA

B1: recombinant 13C/15N peptide 1 (peptide)
peptide: FETLRGDERILSILRHQNLLKELQD-{hSer(lactone)}
modifications: also: 13C/15N isotope labelled
notes: Used in the 2D-STD NMR experiments; also called recombinant peptide 1; 15N labelled peptide 1
- binding result (bovine serum albumin): no binding
- binding result [1]: binds

Binder: C(maleimide‑NOTA)FETLRGEERILSILRHQNLLKELQD (Negative control conjugate) [NOTA-2a (peptide 2a coupled to maleimide-NOTA)]
- binding result [2]: no binding

Binder: CFETLRGDLRILSILR[Pra]QNL[Lys(N3)]KELQD-NH2 (triazole 17-21, also called CgA38-63-derived peptide) [peptide 5a]
- Ki [3]: 1.5 nM

B2: peptide 1 (CgA-derived peptide, residues 39-63), synthetic (peptide)
peptide: FETLRGDERILSILRHQNLLKELQD
notes: Synthetic peptide bought from Biomatik; no terminal modification is stated for it; also called compound 1
- Ki [4]: 3600 nM
- Ki [5]: 2190 nM
- Ki [6]: 9210 nM
- Ki [7]: 15.5 nM
- Ki [8]: 7660 nM

Binder: Ac-C[βAsp]GRCGVRSSSRTPSDK(Biotin)Y (also: in complex with streptavidin-peroxidase conjugate)
- Kd [9]: 1.7 nM
- Kd [10]: 1.4 nM
- Kd [11]: 1.3 nM
- Kd [12]: 1.3 nM
- Kd [13]: 1.6 nM

B3: peptide 3 (peptide)
peptide: FETLRGDERILSILR-NH2
notes: Made by Fmoc-SPPS on a Rink-amide resin; also called compound 3
- Ki [4]: 2040 nM
- Ki [5]: 1250 nM
- Ki [6]: 10100 nM
- Ki [7]: 277 nM
- Ki [8]: 31200 nM

Binder: C(maleimide‑IRDye 800CW)FETLRGEERILSILRHQNLLKELQD (RGE control conjugate) [2a-IRDye (peptide 2a coupled via Cys to maleimide-IRDye 800CW)]
- binding result [14]: no binding (tested: range 0.01-100 nM)
- binding result [15]: no binding (tested: range 0.01-100 nM)
